The source of these data is patent US20200010567A1 (NEURIMMUNE, published 2020).

Test [1] concerns the target T1, (GP)15: H-C(GP)15-OH.
T1 construct: synthetic, not coupled to BSA; also called poly-GP DPR protein peptide
T1 peptide: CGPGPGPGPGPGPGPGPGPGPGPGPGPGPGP
Kind of test: indirect ELISA, coated peptide. The method, then: (§1) In brief, dipeptide repeat proteins were synthesized and purified by Schafer-N(Copenhagen, Denmark): (GA)₁₅: H-CHHHHHH(GA)₁₅-OH; (GP)₁₅: H-C(GP)₁₅-OH; (GR)₁₅: H-C(GR)₁₅-OH; (PA)₁₅: H-C(PA)₁₅-OH; (PR)₁₅: H—C(PR)₁₅-OH. 96-well microplates (Corning Incorporated, Corning, USA) were coated with dipeptide repeat protein peptides at a concentration of either 5 μg/ml or 20 μg/ml in coating buffer (15 mM Na₂CO₃, 35 mM NaHCO₃, pH 9.42). Non-specific binding sites were blocked for 1 h at room temperature with PBS/0.1% Tween®-20 containing 2% BSA (Sigma-Aldrich, Buchs, Switzerland). Primary antibodies were diluted to the indicated concentrations and incubated for 1 h at room temperature, followed by incubation with a donkey anti-human IgG Fcγ-specific antibody conjugated with HRP (Jackson ImmunoResearch Laboratories, Inc., West Grove, USA). Binding was determined by measurement of HRP activity in a standard colorimetric assay. EC₅₀ values were estimated by non-linear regression using GraphPad Prism software (San Diego, USA). The binding specificity and EC₅₀ of human-derived antibodies for C9orf72 dipeptide repeat protein peptides (GA)₁₅, (GP)₁₅, (GR)₁₅, (PA)₁₅ and (PR)₁₅ were determined by indirect ELISA.

Test [2] addresses T2, (GR)15: H-C(GR)15-OH.
T2 construct: synthetic, not coupled to BSA; also called poly-GR DPR protein peptide
T2 peptide: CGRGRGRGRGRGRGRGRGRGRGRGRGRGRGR
As to the kind of experiment: indirect ELISA, coated peptide. The method, then: as §1

Test [3] addresses T3, (GA)15: H-CHHHHHH(GA)15-OH.
T3 construct: synthetic, not coupled to BSA; also called poly-GA DPR protein peptide
T3 peptide: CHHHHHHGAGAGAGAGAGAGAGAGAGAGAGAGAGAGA
As to the kind of experiment: indirect ELISA, uncoupled peptide coated, antibody titrated [also D00011 FIG. 2M]. The method, then: as §1

Test [4] has as its target T4, (PA)15: H-C(PA)15-OH.
T4 construct: synthetic, not coupled to BSA; also called poly-PA DPR protein peptide
T4 peptide: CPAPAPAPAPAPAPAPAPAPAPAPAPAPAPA
The test is described as above. The method, then:
as §1

Test [5] concerns the target T5, BSA-coupled (GR)15 DPR protein peptide (bovine, UniProt P02769 25-607, conjugated via a bifunctional linker (SMCC) to bovine serum albumin).
T5 construct: also called BSA-(GR)15
As to the kind of experiment: Western blot of BSA-coupled peptides. The method, then: (§2) Resolved proteins were then electroblotted (Novex® Semi-Dry Blotter, 1 h, 25V) on methanol-activated PVDF membranes (Immobilon®-P Transfer Membrane, Merck & Cie, Schaffhausen, Switzerland) by the use of Novex® NuPAGE® transfer buffer 2× (Life Technologies Europe B.V., Zug, Switzerland). Non-specific binding sites were blocked overnight at 4° C. (or alternatively for 1 h at room temperature) with PBS/0.1% Tween®-20 containing 2% BSA (Sigma-Aldrich, Buchs, Switzerland) (PBST). […] Membranes were washed three times in PBST for 15 min at RT and then incubated with a donkey anti-human IgG Fcγ-specific antibody conjugated with HRP (1:20000 or 1:10000 dilution, Jackson ImmunoResearch Laboratories, Inc., West Grove, USA) for 1 h at room temperature. Antibody binding was determined by membrane development using ECL and ImageQuant 350 detection (GE Healthcare, Otelfingen, Switzerland).
(§3) The binding specificity of the human-derived antibodies to BSA-coupled C9orf72 dipeptide repeat proteins (GA)₁₅, (GP)₁₅, (GR)₁₅, (PA)₁₅ and (PR)₁₅ was determined by Western blot analysis.

Test [6] has as its target T6, BSA-coupled (PA)15 DPR protein peptide (bovine, UniProt P02769 25-607, conjugated via a bifunctional linker (SMCC) to bovine serum albumin).
T6 construct: also called BSA-(PA)15
Kind of test: Western blot of BSA-coupled peptides. The method, then: as §2, §3

The target in test [7] is T7, BSA-coupled (GP)15 DPR protein peptide (bovine, conjugated via a bifunctional linker (SMCC) to bovine serum albumin).
T7 construct: also called BSA-(GP)15
Kind of test: Western blot of BSA-coupled peptides. The method, then:
as §2, §3

Test [8] concerns the target T8, (PR)15: H-C(PR)15-OH.
T8 construct: synthetic, not coupled to BSA; also called poly-PR DPR protein peptide
T8 peptide: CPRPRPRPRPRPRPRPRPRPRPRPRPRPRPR
As to the kind of experiment: indirect ELISA, uncoupled peptide coated, antibody titrated [also D00016 FIG. 3M]. The method, then: as §1, with “(PR)₁₅: H—C(PR)₁₅-OH. DPR protein peptides were then conjugated via a bifunctional linker (SMCC) to bovine serum albumin (BSA). 96-well microplates” for “(PR)₁₅: H—C(PR)₁₅-OH. 96-well microplates”, “coated with BSA-coupled or -uncoupled dipeptide repeat” for “coated with dipeptide repeat”, “and incubated 1 h” for “and incubated for 1 h”, “Diego, USA).” for “Diego, USA). The binding specificity and EC₅₀ of human-derived antibodies for C9orf72 dipeptide repeat protein peptides (GA)₁₅, (GP)₁₅, (GR)₁₅, (PA)₁₅ and (PR)₁₅ were determined by indirect ELISA.”

Test [9] deals with T9, BSA-coupled (PR)15 DPR protein peptide (bovine, conjugated via a bifunctional linker (SMCC) to bovine serum albumin).
T9 construct: also called BSA-(PR)15
Kind of test: indirect ELISA, BSA-coupled peptide coated, antibody titrated [also D00016 FIG. 3M]. The method, then:
as §1, with “(PR)₁₅: H—C(PR)₁₅-OH. DPR protein peptides were then conjugated via a bifunctional linker (SMCC) to bovine serum albumin (BSA). 96-well microplates” for “(PR)₁₅: H—C(PR)₁₅-OH. 96-well microplates”, “coated with BSA-coupled or -uncoupled dipeptide repeat” for “coated with dipeptide repeat”, “and incubated 1 h” for “and incubated for 1 h”, “Diego, USA).” for “Diego, USA). The binding specificity and EC₅₀ of human-derived antibodies for C9orf72 dipeptide repeat protein peptides (GA)₁₅, (GP)₁₅, (GR)₁₅, (PA)₁₅ and (PR)₁₅ were determined by indirect ELISA.”

Test [10] has as its target T4, (PA)15: H-C(PA)15-OH. As to the kind of experiment: indirect ELISA, coated peptide. The method, then: as §1
For test [11], the target named is T2, (GR)15: H-C(GR)15-OH. Kind of test: indirect ELISA, uncoupled peptide coated, antibody titrated [also D00015 FIG. 3J]. The method, then:
as §1, with “(PR)₁₅: H—C(PR)₁₅-OH. DPR protein peptides were then conjugated via a bifunctional linker (SMCC) to bovine serum albumin (BSA). 96-well microplates” for “(PR)₁₅: H—C(PR)₁₅-OH. 96-well microplates”, “coated with BSA-coupled or -uncoupled dipeptide repeat” for “coated with dipeptide repeat”, “and incubated 1 h” for “and incubated for 1 h”, “Diego, USA).” for “Diego, USA). The binding specificity and EC₅₀ of human-derived antibodies for C9orf72 dipeptide repeat protein peptides (GA)₁₅, (GP)₁₅, (GR)₁₅, (PA)₁₅ and (PR)₁₅ were determined by indirect ELISA.”

Test [12] addresses T10, full-length amyloid precursor protein (UniProt P05067 18-770, limits assumed).
T10 construct: also called flAPP
Kind of test: indirect ELISA, coated protein. The method, then:
(§4) 96-well microplates (Corning) were coated with different target proteins at a concentration of 1-10 μg/ml in coating buffer (15 mM Na₂CO₃, 35 mM NaHCO₃, pH 9.42). Non-specific binding sites were blocked for 1 h at RT with PBS/0.1% Tween®-20 containing 2% BSA (Sigma-Aldrich, Buchs, Switzerland). […] Binding was determined using donkey anti-human IgG Fcγ-specific antibody conjugated with HRP (Jackson ImmunoResearch Laboratories, Inc., West Grove, USA) followed by measurement of HRP activity in a standard colorimetric assay. Signals for target protein were calculated in fold increase above median.

Test [13] deals with T11, transactive response DNA binding protein 43 (UniProt Q13148 1-414, limits assumed).
T11 construct: also called TDP-43
Kind of test: indirect ELISA, coated protein. The method, then:
as §4

The target in the next test is Tau (UniProt P10636-8 1-441, limits assumed). As to the kind of experiment: indirect ELISA, coated protein. The method, then: as §4
For another test, the target named is transthyrethin (UniProt P02766 21-147). Kind of test: indirect ELISA, coated protein. The method, then:
as §4

Test [14] deals with T6, BSA-coupled (PA)15 DPR protein peptide. As to the kind of experiment: Western blot, BSA-coupled peptide. The method, then:
as §2, §3

Test [15] deals with T7, BSA-coupled (GP)15 DPR protein peptide. As to the kind of experiment: Western blot, BSA-coupled peptide. The method, then:
as §2, §3

Test [16] deals with T2, (GR)15: H-C(GR)15-OH. Kind of test: indirect ELISA, coated uncoupled peptide. The method, then:
as §1

For test [17], the target named is T1, (GP)15: H-C(GP)15-OH. As to the kind of experiment: indirect ELISA, uncoupled peptide coated, antibody titrated [also D00015 FIG. 3L]. The method, then:
as §1, with “(PR)₁₅: H—C(PR)₁₅-OH. DPR protein peptides were then conjugated via a bifunctional linker (SMCC) to bovine serum albumin (BSA). 96-well microplates” for “(PR)₁₅: H—C(PR)₁₅-OH. 96-well microplates”, “coated with BSA-coupled or -uncoupled dipeptide repeat” for “coated with dipeptide repeat”, “and incubated 1 h” for “and incubated for 1 h”, “Diego, USA).” for “Diego, USA). The binding specificity and EC₅₀ of human-derived antibodies for C9orf72 dipeptide repeat protein peptides (GA)₁₅, (GP)₁₅, (GR)₁₅, (PA)₁₅ and (PR)₁₅ were determined by indirect ELISA.”

Test [18] addresses T8, (PR)15: H-C(PR)15-OH. As to the kind of experiment: indirect ELISA, coated peptide. The method, then: as §1
Test [19] deals with T7, BSA-coupled (GP)15 DPR protein peptide. As to the kind of experiment: indirect ELISA, BSA-coupled peptide coated, antibody titrated [also D00015 FIG. 3L]. The method, then: as §1, with “(PR)₁₅: H—C(PR)₁₅-OH. DPR protein peptides were then conjugated via a bifunctional linker (SMCC) to bovine serum albumin (BSA). 96-well microplates” for “(PR)₁₅: H—C(PR)₁₅-OH. 96-well microplates”, “coated with BSA-coupled or -uncoupled dipeptide repeat” for “coated with dipeptide repeat”, “and incubated 1 h” for “and incubated for 1 h”, “Diego, USA).” for “Diego, USA). The binding specificity and EC₅₀ of human-derived antibodies for C9orf72 dipeptide repeat protein peptides (GA)₁₅, (GP)₁₅, (GR)₁₅, (PA)₁₅ and (PR)₁₅ were determined by indirect ELISA.”

For test [20], the target named is T9, BSA-coupled (PR)15 DPR protein peptide. Kind of test: Western blot of BSA-coupled peptides. The method, then: as §2, §3
Test [21] addresses T3, (GA)15: H-CHHHHHH(GA)15-OH. Kind of test: indirect ELISA, uncoupled peptide coated, antibody titrated [also D00011 FIG. 2L]. The method, then:
as §1

T6 sequence (P02769 25-607 limits assumed): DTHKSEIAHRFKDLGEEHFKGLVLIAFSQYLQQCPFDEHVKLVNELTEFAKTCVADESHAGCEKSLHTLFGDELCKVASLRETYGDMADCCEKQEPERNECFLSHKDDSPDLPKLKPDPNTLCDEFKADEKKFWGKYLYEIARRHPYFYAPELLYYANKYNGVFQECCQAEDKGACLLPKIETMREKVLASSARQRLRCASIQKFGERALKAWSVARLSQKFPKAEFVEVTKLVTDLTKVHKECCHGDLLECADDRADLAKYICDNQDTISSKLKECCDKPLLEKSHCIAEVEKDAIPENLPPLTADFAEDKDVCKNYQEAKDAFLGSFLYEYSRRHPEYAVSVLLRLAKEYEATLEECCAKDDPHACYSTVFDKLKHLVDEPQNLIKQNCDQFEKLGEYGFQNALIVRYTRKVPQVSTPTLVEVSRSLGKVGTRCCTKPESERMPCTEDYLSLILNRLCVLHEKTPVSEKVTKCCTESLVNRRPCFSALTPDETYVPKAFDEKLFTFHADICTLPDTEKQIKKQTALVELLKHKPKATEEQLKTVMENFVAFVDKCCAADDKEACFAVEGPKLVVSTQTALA
T7 sequence (P02769 25-607 limits assumed): as above
T5 sequence (P02769 25-607 limits assumed): as above
T9 sequence (P02769 25-607 limits assumed): as above
Sequence of Tau (P10636 other isoform, or with tags, fused parts or gaps limits assumed): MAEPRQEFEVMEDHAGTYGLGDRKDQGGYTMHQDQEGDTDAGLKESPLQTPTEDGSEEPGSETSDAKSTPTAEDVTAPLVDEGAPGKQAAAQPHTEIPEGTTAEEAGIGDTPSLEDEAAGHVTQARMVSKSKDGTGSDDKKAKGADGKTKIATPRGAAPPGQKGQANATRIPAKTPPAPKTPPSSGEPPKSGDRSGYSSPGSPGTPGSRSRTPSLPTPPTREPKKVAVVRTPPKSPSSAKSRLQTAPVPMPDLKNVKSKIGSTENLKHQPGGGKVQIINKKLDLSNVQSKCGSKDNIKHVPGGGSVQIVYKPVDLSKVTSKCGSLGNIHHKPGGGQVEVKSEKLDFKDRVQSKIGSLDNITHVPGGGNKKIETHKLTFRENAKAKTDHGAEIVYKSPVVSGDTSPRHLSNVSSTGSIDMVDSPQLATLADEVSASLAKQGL
T11 sequence (Q13148 whole entry): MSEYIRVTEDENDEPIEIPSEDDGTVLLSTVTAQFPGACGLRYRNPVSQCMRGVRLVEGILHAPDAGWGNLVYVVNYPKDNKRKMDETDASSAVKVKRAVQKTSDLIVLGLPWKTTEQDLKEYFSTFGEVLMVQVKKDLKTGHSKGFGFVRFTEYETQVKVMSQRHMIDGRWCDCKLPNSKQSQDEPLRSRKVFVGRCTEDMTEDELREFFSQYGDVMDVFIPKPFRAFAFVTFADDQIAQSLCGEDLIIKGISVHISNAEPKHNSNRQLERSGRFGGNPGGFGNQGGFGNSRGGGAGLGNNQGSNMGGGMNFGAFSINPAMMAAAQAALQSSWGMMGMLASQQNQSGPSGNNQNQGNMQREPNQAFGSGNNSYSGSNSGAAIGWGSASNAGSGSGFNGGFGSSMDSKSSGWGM
T10 sequence (P05067 18-770 limits assumed): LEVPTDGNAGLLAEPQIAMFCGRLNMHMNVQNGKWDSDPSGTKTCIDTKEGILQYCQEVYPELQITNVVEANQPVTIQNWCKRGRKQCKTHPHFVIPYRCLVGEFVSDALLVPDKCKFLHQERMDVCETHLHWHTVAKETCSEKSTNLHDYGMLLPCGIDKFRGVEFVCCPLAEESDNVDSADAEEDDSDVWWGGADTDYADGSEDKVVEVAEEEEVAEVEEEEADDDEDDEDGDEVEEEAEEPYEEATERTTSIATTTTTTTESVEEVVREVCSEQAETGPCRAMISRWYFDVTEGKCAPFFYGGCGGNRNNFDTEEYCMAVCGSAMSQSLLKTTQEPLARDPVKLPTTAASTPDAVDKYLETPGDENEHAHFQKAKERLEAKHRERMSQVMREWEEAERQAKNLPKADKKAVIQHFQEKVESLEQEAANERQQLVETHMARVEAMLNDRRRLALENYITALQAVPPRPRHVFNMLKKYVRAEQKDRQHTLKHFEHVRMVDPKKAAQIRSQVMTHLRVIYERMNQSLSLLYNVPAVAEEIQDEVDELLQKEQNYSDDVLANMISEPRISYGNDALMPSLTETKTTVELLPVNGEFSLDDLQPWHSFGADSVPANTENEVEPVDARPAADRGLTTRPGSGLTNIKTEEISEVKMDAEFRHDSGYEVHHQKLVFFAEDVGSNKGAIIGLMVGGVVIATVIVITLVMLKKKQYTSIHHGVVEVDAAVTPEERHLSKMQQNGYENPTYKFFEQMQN

B1: NI-308.16C10 (antibody, V domains shown)
VH: EVQLVETGGGVVQPGMSLSLSCAATGFTFSSYGMHWVRQGPGKGPEWVAGIWYDGTNKYYGDSVTGRVTISRDNSKNTLFLQMINVRVEDTAVYYCVKDAERVQKWASYIMDVWGQGTTVTVSS
VL: EIVLTQSPGILSLSRGNRVALSCRASRSVNSSYLNWYQQKPGQAPRLLIYGASKRATGISDRFRGTGSGTDFTLTVARLEPEDIAVYYCQHYGAFGQGTKLEIK
notes: Recombinant complete human IgG1, kappa
On to B1, for which the binding result is given as “no binding” in the test with (GP)15: H-C(GP)15-OH [1]; “no binding” in the test with (GR)15: H-C(GR)15-OH [2]; “no binding (tested: about 4x10^5 pM (last point))” in the test with (PA)15: H-C(PA)15-OH [4]; “no binding” in test [5]; “no binding” in [6]; “no binding” in test [7]. Further, the half-maximal effective concentration (EC50) in test [3] is 55.1 nM; with (PR)15: H-C(PR)15-OH [8], 3.5 nM; in [9], 91.1 nM.

B2: NI-308.46F8 (antibody, V domains shown)
VH: QVQLVESGGGVVRPGGSLRLSCTASGFTFDEYGMSWVRQVPGKGLEWVSGINWNGATTRYADSVKGRFTISRDNAKNSLYLQMNSLRAEDTALYHCARDGCRNTSCYIWDWFDPWGQGTLVTVSS
VL: CQSVLTQPPSVSAAPGQKVTISCSGSSSNIGNNYVCWYQNLPGTAPKLLIYDDNKRPSGIPDRFSGSKSGTSATLGITGLQTGDEADYYCGTWDSSLSVVVFGGGTKLTVL
Consider B2, for which the binding result in the test with (GP)15: H-C(GP)15-OH [1] is listed as “no binding”; in the test with (PA)15: H-C(PA)15-OH [10], “no binding”; in test [12] it was “no binding (tested: 20 nM)”; in test [13], “no binding (tested: 20 nM)”; with Tau, “no binding (tested: 20 nM)”; with transthyrethin it was “no binding (tested: 20 nM)”. For the same molecule, the binding result in test [14] and in test [15] was “no binding (tested: 10 nM or 100 nM)” throughout. In addition, the figures for the EC50 in the test with (GR)15: H-C(GR)15-OH [11] and with (GR)15: H-C(GR)15-OH [16] were 90.3 nM and 40.6 nM, respectively.

B3: NI-308.12A3 (antibody, V domains shown)
VH: EVQLVETGGGLVQPGGSLRLSCVGSGFLFSDFEMDWVRQAPGKGLEWISYISGDGNIIYQTDSVKGRFTISRDNAKNSLFLQMDSLTVEDTAVYYCARDARENCGGDCYSTSFDFWGQGTLVTVSS
VL: DIQMTQSPDSLAVSLGERATINCKSSQSLLYTANNRNYLAWYQKKAGQPPKLLIHWASTRASGVPDRFSGSGSGTDFILTISSLQAEDVAVYFCQHYYNSPRTFGQGTKVEIK
notes: as for B1
Take B3: the EC50 amounted to 2.2 nM with (GP)15: H-C(GP)15-OH [17], 6.1 nM in test [19] and 19 nM in test [21]. The binding result (in the test with (PR)15: H-C(PR)15-OH [18]; with (GR)15: H-C(GR)15-OH [2]; with (PA)15: H-C(PA)15-OH [10]; in [5]; in test [6]; in test [20]) was “no binding” in each case.
